Experimental data: patent publication US20140234868A1, “USE FOR GLYCOLIPOPROTEIN GINTONIN, ISOLATED AND IDENTIFIED FROM GINSENG, AS A NATURAL MEDICAL-PLANT DERIVED LIGAND” (KONKUK UNIVERSITY INDUSTRIAL COOPERATION CORP., priority 2011, published 2014)

Tests used:
mice = test: Water maze test, scopolamine-caused spatial cognition impairment; type: in vivo, mouse
Protocol: The Moths water maze set up contained a round water pool (45 cm deep with a diameter of 90 cm) filled with milk-mixed water (22±1° C.) to a depth of 30 cm. It was placed in a dark, sound-shielded room in which various visual cues were established. A white platform (6 cm in diameter, 29 cm in height) was inside the pool, with the top thereof 1 cm below the water surface in the center of one quadrant of the maze
On day 1, the mice were trained to swim for 60 sec. Subsequently, the training was conducted four times a day for four consecutive days, with the platform inside the pool. When the mouse reached the platform, it was allowed to sit on the platform only for 10 sec. If the failed in reaching the platform within 60 sec, it was guided to reach the platform and stay for 10 sec thereon. Afterwards, the mouse was returned back to the home cage and allowed to dry its body under an IR lamp. The time interval between trials was 30 sec.
The time to reach the hidden platform was recorded in each trial using a video camera-based Ethovision System (Nodulus, Wageningen, the Netherlands).
For each training trial, the mouse was placed into the pool at one quadrant at positions which were different day by day. One day after the final training trial, the mouse was evaluated. In this regard, after the platform was removed, the mouse was allowed to swim for 60 sec in search for the platform, and the time to swim in the quadrant where the platform was located was recorded. Gintonin (25, 50, or 100 mg/kg, p.o.) in physiological saline was administered 1 hr before test, every day. Tacrine (10 mg/kg, p.o.) was used as a positive control. Memory impairment was induced by scopolamine (0.9 mg/kg i.p.) 30 min after gintonin administration. For a negative control, only physiological saline was administered.
An examination was made of simple spatial reasoning. To this end, while the mice were allowed to swim in the absence of the rescue platform in the pool, the time period during which the mice swam in the quadrant where the rescue platform had been located was recorded.

LPA2 receptor = LPA2 receptor (Homo sapiens, UniProt Q9HBW0); test: Intracellular free Ca2+ (Fura-2AM) in LPA2-expressing B103 cells; type: cell-based; design: host or cells: B103 rat neuroblastoma cells
Text: (§1) LPA family receptors are endogenous to cells of most organs. B103 rat neuroblastoma cells, known as LPA receptor-null cells (Valentine et al., Biochim Biophys Acta 1780. 597-605) were transiently transfected with a plasmid (vector) carrying one of genes coding for LPA1(edg-2), LPA2(edg-4), LPA3(edg-7), LPA4, LPA5 and LPA6 receptors or a plasmid carrying none of them (empty vector). Two or three days after transfection, the cells are suspended, and made permeable. Then, the permeable cells are treated with Fura-2AM, a fluorescent dye binding to calcium, and then with gintonin, followed by spectrofluorephotometry to examine whether gintonin induces an increase in intracellular free Ca^2+ level.
(1) preparing large quantities of plasmids carrying respective LPA family receptor genes and an empty plasmid carrying none of them through amplification and purification (maxi-preparation); (2) verifying the expression of LPA receptors wherein B103 cells are transfected with haematoglutin (HA)-tagged LPA receptors, and then subjected to Western blotting analysis using an anti-HA primary antibody and a horseradish peroxidase (HRP)-conjugated secondary antibody to develop a color; (3) verifying the expression of LPA receptors wherein B1-3 cells are transfected with haematoglutin (HA)-tagged LPA receptors, and then subjected to confocal laser microscopy using an anti-HA antibody and a fluorescence dye Cy3-conjugated secondary antibody; (4) transfecting the empty plasmid and each of the plasmids carrying LPA family receptor genes into B103 cells; (5) treating the transfected B103 cells with trypsin (0.05% trypsin with EDTA, w/v) 2-3 days post-transfection, to give a cell suspension; (6) culturing the suspended B103 cells with Fura-2AM (2.5 μM); and (7) treating the suspended B103 cells with gintonin and quantifying a change in intracellular free Ca^2+ level in a cuvette by spectrofluorephotometry using Fura-2AM.
Human LPA (lysophosphatidic acid) receptor subtypes, orphan GPCRs (G protein coupled receptors) and plasmids carrying GPCRs were purchased from Missouri S&T resource Center (www.cDNA.org).
The transient transfection of LPA receptor subtypes was carried out with the aid of Lipofectamine 2000 of Invitrogen. A plasmid (10.8 μg) carrying each LPA receptor (LPA1, LPA2, LPA3, LPA4, LPA5, and LPA6) was transfected into B103 cells grown in 10-cm dishes, and incubated for 2 days prior for use in experiments.
In this Example, gintonin, or ginsenoside Rb1 or Rg1 was examined for its ability to induce a transient increase of [Ca^2+]i in Fura-2AM-loaded B103 cells which were transfected with LPA receptors and in Fura-2AM-loaded B103 cells which were not transfected with LPA receptors. […]

LPA6 receptor = biological target: T1, LPA6 receptor (Homo sapiens, UniProt P43657); test: Intracellular free Ca2+ (Fura-2AM) in LPA6-expressing B103 cells; type: cell-based
T1 construct: host or cells: B103 rat neuroblastoma cells
T1 sequence (P43657 1-344): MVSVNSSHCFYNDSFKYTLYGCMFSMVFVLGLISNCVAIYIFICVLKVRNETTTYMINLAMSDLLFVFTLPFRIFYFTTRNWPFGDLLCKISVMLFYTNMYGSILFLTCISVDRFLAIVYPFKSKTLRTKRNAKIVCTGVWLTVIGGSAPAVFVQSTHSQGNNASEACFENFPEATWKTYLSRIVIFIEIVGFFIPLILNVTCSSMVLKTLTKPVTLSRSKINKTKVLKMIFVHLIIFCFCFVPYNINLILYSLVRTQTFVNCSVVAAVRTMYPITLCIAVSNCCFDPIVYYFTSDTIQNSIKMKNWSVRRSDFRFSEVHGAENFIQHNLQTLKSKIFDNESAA
Text: as §1, with “level. […]” for “level.”

Sequence of LPA2 receptor (Q9HBW0 whole entry): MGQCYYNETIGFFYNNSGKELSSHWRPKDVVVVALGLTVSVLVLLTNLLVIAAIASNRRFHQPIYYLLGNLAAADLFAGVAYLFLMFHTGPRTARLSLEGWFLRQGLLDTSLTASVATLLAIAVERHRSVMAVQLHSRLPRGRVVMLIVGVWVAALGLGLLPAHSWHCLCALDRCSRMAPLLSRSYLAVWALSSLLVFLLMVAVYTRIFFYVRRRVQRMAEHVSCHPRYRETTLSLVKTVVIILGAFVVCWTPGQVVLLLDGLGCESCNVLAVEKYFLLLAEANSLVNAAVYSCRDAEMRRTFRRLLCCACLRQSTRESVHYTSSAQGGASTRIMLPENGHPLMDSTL

B1: gintonin: ginseng-derived glycolipoprotein; structural protein of ginseng major latex-like protein (MLP151) and ribonuclease-like storage proteins; crude gintonin used in tests (protein)
chain 1: MGLTGKLICQTGIKSDGDVFHELFGTRPHHVPNITPANIQGCDLHEGEFGKVGSVVIWNYSIDGNAMIAKEEIVAIDEEDKSVTFKVVEGHLFEEFKSIVFSVHVDTKGEDNLVTWSIDYEKLNESVKDPTSYLDFLLSVTRDIEAHHLPK
chain 2: RSDYPWAMFALRLQWPAGFCEVNNACDTKSLLNTFTIHGLYPYNAKGTPALYCDGTAFDVNSVSDFLAEMHLAWPSHETNTEDIQFWEHEWKKHGRCSEALLKQTDYFRTALAFRKAFDIVGLLNQEGIYPNNDLYRPKMIKEAIKKHLNAVPEIDFTKNENSEYVLTDINVCVNQQATRFVDCPTDDATDDYRLKFVRLPSKMKFADPRTNSII
With B1 the “swimming time in the quadrant where the platform had been located” value (shortened to “swimming time”) (mice; gintonin 25 mg/kg p.o. + scopolamine) was 21.33 ± 3.13 s, the “swimming time” value (mice; gintonin 50 mg/kg p.o. + scopolamine) was 24.53 ± 3.91 s and the “swimming time” value (mice; gintonin 100 mg/kg p.o. + scopolamine) was 25.17 ± 4.43 s. The “latent time to reach hidden platform” value (mice; gintonin 25, 50, 100 mg/kg p.o. + scopolamine, day 1 to day 4) was “reduce the latent time extended by scopolamine significantly and in a dose-dependent manner”, the EC50 (LPA2 receptor; LPA2 receptor, B103 cells, read-out: EC50, LPA receptor-mediated intracellular calcium increase) was 4 ± 0.4 pM and the “increase in intracellular calcium level” value (LPA2 receptor; gintonin 1 μg/ml, LPA2-expressing B103 cells) was 208.3 ± 13.0 µM. The “gintonin activity on intracellular calcium level” value (LPA6 receptor) was “No gintonin activity was detected”.
